Data taken from US20140087995A1 (published 2014).
Numbering of substitutions follows the chain as printed. Numbered stars: 1 amine (or outer) side, 2 acyl side, 3 side chain; on linkers, the order of the positions; unused ones are H or OH. Bridge positions count the residues as written; N and C are the ends. * marks the point of attachment. C20 diacid = O=C(O)CCCCCCCCCCCCCCCCCCC(=O)*; γGlu = O=C(O)[C@H](CCC(=O)[*:2])N[*:1]

T1: rat calcitonin receptor (rat, UniProt P32214 25-516)
T1 construct: whole, on cells; membranes of transiently transfected BHK tk'ts 13 cells (Assay VIII); also called rCTR; rat calcitonin (a) receptor
T1 sequence (looked up): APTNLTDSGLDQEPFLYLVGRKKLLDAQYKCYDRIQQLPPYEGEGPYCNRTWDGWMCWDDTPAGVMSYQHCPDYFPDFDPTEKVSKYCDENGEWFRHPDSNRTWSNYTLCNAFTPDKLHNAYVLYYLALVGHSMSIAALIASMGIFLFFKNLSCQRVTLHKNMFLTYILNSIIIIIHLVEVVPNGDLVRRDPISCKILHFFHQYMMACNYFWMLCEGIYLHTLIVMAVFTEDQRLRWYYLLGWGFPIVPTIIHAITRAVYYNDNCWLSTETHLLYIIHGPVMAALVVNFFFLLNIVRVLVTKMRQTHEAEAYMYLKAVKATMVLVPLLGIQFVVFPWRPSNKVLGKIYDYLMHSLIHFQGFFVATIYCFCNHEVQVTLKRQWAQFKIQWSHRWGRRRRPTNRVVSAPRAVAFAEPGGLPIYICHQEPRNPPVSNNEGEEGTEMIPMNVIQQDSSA

T2: rat amylin receptor (rat calcitonin receptor + rat RAMP 3) (rat, UniProt P32214 25-516; Q9JJ73 23-147)
T2 construct: whole, on cells; membranes of transiently transfected BHK tk'ts 13 cells (Assay VI); also called rAmylin-R; rat amylin 3(a) receptor
T2 sequence (looked up) 1: T1 sequence (looked up)
T2 sequence (looked up) 2: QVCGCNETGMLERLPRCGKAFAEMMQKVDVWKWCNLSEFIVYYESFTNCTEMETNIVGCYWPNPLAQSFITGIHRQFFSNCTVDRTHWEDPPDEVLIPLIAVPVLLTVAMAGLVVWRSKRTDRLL

T3: human calcitonin receptor (human, UniProt P30988 25-474)
T3 construct: whole, on cells; membranes of stably transfected BHK cells (Assay VII); also called hCTR; hCT
T3 sequence (looked up): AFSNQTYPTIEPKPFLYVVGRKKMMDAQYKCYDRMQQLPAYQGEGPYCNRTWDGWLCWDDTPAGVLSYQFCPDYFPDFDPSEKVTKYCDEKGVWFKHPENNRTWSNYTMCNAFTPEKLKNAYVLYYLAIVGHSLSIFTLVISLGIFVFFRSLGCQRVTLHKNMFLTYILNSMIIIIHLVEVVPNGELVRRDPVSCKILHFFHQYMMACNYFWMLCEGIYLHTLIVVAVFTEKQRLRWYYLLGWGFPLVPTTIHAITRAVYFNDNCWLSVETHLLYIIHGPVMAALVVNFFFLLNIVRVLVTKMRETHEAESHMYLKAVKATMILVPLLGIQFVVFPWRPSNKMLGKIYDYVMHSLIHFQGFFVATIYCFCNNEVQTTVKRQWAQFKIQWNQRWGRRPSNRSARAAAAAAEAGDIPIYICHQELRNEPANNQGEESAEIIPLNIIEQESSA

T4: human calcitonin receptor (human, UniProt P30988 25-474)
T4 construct: whole, on cells; Membranes of a BHK tk'ts 13 cell line stably transfected with the human calcitonin receptor; also called hCTR; hCT
T4 sequence (looked up): T3 sequence (looked up)

B1: N^α1-[2-[2-[2-[[2-[2-[2-[[(4S)-4-carboxy-4-(19-carboxynonadecanoylamino)butanoyl]amino]ethoxy]ethoxy]acetyl]amino]ethoxy]ethoxy]acetyl]-[Glu14,Arg17,Pro21,Pro27 … (peptide)
peptide: KCNTATCATQRLAEFLRHSSPNFGAIPSSTNVGSNTY
modifications: C20 diacid-gGlu-2xOEG on the alpha amino group of the N-terminal residue (Lys 1); disulfide bridge between the two Cys residues; C-terminal amide
notes: analogue of human amylin; also called compound 19
B2: N^α1-[(4S)-4-carboxy-4-(19-carboxynonadecanoylamino)butanoyl]-[Arg17,Pro21,Pro27,Arg34]-h-amylin (peptide)
peptide: B1 peptide with E14N, S34R
modifications: C20 diacid-gGlu on the alpha amino group of the N-terminal residue (Lys 1); disulfide bridge between the two Cys residues; C-terminal amide
notes: analogue of human amylin; also called compound 39
B3: N^α1-[(4S)-4-carboxy-4-(19-carboxynonadecanoylamino)butanoyl]-[Arg17,Pro21,Pro27,His34]-h-amylin (peptide)
peptide: B1 peptide with E14N, S34H
modifications: C20 diacid-gGlu on the alpha amino group of the N-terminal residue (Lys 1); disulfide bridge between the two Cys residues; C-terminal amide
notes: analogue of human amylin; also called compound 40
B4: N^α1 N^α1-[(4S)-4-carboxy-4-[[(4S)-4-carboxy-4-(19-carboxynonadecanoylamino)butanoyl]amino]butanoyl]-[Glu14,Arg17,Pro21,Pro27]-h-amylin (peptide)
peptide: {C20 diacid-γGlu-γGlu}-KCNTATCATQRLAEFLRHSSPNFGAIPSSTNVGSNTY-NH2
modifications: disulfide 2-7
SMILES: CC[C@H](C)[C@H](NC(=O)[C@H](C)NC(=O)CNC(=O)[C@H](Cc1ccccc1)NC(=O)[C@H](CC(N)=O)NC(=O)[C@@H]1CCCN1C(=O)[C@H](CO)NC(=O)[C@H](CO)NC(=O)[C@H](Cc1c[nH]cn1)NC(=O)[C@H](CCCNC(=N)N)NC(=O)[C@H](CC(C)C)NC(=O)[C@H](Cc1ccccc1)NC(=O)[C@H](CCC(=O)O)NC(=O)[C@H](C)NC(=O)[C@H](CC(C)C)NC(=O)[C@H](CCCNC(=N)N)NC(=O)[C@H](CCC(N)=O)NC(=O)[C@@H](NC(=O)[C@H](C)NC(=O)[C@@H]1CSSC[C@H](NC(=O)[C@H](CCCCN)NC(=O)CC[C@H](NC(=O)CC[C@H](NC(=O)CCCCCCCCCCCCCCCCCCC(=O)O)C(=O)O)C(=O)O)C(=O)N[C@@H](CC(N)=O)C(=O)N[C@@H]([C@@H](C)O)C(=O)N[C@@H](C)C(=O)N[C@@H]([C@@H](C)O)C(=O)N1)[C@@H](C)O)C(=O)N1CCC[C@H]1C(=O)N[C@@H](CO)C(=O)N[C@@H](CO)C(=O)N[C@H](C(=O)N[C@@H](CC(N)=O)C(=O)N[C@H](C(=O)NCC(=O)N[C@@H](CO)C(=O)N[C@@H](CC(N)=O)C(=O)N[C@H](C(=O)N[C@@H](Cc1ccc(O)cc1)C(N)=O)[C@@H](C)O)C(C)C)[C@@H](C)O
notes: modifications are with respect to human amylin; also called compound 15

The binders below were run against T1, rat calcitonin receptor (assay: IC50 on rat calcitonin receptor divided by IC50 on rat amylin receptor (SPA competition)).
For B1, the “Ratio rCT/rAmylin binding” value was 93.6.
B2 was tested, and the “Ratio rCT/rAmylin binding” value was 54.5.
In the case of B3, the “Ratio rCT/rAmylin binding” value is reported as 46.2.

Each binder was assayed against T1, rat calcitonin receptor (assay: SPA competition with 125I-calcitonin, membranes of BHK cells with rat calcitonin receptor (Assay VIII)).
B1 showed an IC50 of 95.6 nM.
Binder B2 has an IC50 of 96.4 nM.
In the case of B3, the IC50 is reported as 69.2 nM.

Each binder was assayed against T2, rat amylin receptor (rat calcitonin …) (assay: SPA competition with 125I-rat amylin, membranes of BHK cells with rat calcitonin receptor + rat RAMP3 (Assay VI)).
B1 gave an IC50 of 1.02 nM.
In the case of B2, the IC50 is reported as 1.77 nM.
In the case of B3, the IC50 is reported as 1.5 nM.

The binders below were run against T3, human calcitonin receptor (assay: IC50 on human calcitonin receptor divided by IC50 on human amylin receptor (SPA competition)).
Method: (§1) The resulting pellet was resuspended, homogenized and centrifuged (20.000 rpm, 15 min) in a buffer containing 20 mM Na-HEPES and 0.1 mM EDTA (pH 7.4, buffer 2). The resulting pellet was resuspended in buffer 2 and protein concentration was measured (BCA protein Assay, Pierce). The homogenate was kept cold during the whole procedure. The membranes were kept at −80° C. until use. The assay was performed in a 384 well Optiplate (PerkinElmer) in a total volume of 40 ul. Membranes were mixed with SPA beads. Final concentration of membranes 35 ng/μL final and SPA beads was 0.05 mg/well. Test-compounds were dissolved in DMSO and further diluted in assay buffer (50 mM Hepes, pH 7.4, 1 mM CaCl2, 5 mM MgCl₂, 0.1% OA and 0.02% Tween20). […] The final mixture was incubated with shaking at 400 rpm for 120 min at 25° C. prior to centrifugation (1500 rpm, 10 min). Samples were analyzed on TopCounter™ (Packard). The IC₅₀ was calculated using (one site binding competition analysis) GraphPad Prism5 as a measure of receptor affinity.
(§2) Membranes were prepared in the following way; the cells were rinsed with PBS and incubated with Versene for approximately 5 min before harvesting. The cells were flushed with PBS and the cell-suspension was centrifuged for 5 min at 1000 rpm. Cells were homogenized (Ultrathurrax) in a buffer containing 20 mM Na-HEPES and 10 mM EDTA (pH 7.4) and centrifuged at 20.000 rpm for 15 min. The resulting pellet was resuspended, homogenized and centrifuged (20.000 rpm, 15 min) in a buffer containing 20 mM Na-HEPES and 0.1 mM EDTA (pH 7.4, buffer 2). The resulting pellet was resuspended in buffer 2 and protein concentration was measured (BCA protein Assay, Pierce). The homogenate was kept cold during the whole procedure. The membranes were kept at −80° C. until use. Assay was performed in a 384 well Optiplate (PerkinElmer) in a total volume of 40 ul. Membranes were mixed with SPA beads.
For B1, the “Ratio hCT/hAmylin binding” value was 36.7.
B2 was tested, and the “Ratio hCT/hAmylin binding” value was 29.
For B3, the “Ratio hCT/hAmylin binding” value was 31.1.

What follows are binders tested against T4, human calcitonin receptor (assay: IC50 at hCTR divided by IC50 at hAmylin-R (reference)).
Method: as §1, §2
With B4 the “Ratio hCT/hAmylin binding” value was 26.
